Results from article PMC9938351, “Structural insights into ribonucleoprotein dissociation by nucleocapsid protein interacting with non-structural protein 3 in SARS-CoV-2” (Communications Biology, 2020).

B1: MERS-CoV Ubl1 of Nsp3 (domain or fragment)
chain: APVKKVAFGGDQVHEVAAVRSVTVEYNIHAVLDTLLASSSLRTFVVDKSLSIEEFADVVKEQVSDLLVKLLRGMPIPDFDLDDFIDAPCYCFNAEGDASWSSTMIFSLHPVEC
B2: SARS-CoV Ubl1 of Nsp3 (domain or fragment)
chain: APIKGVTFGEDTVWEVQGYKNVRITFELDERVDKVLNEKCSVYTVESGTEVTEFACVVAEAVVKTLQPVSDLLTNMGIDLDEWSVATFYLFDDAGEENFSSRMYCSFYPPD

Experiments:
MERS-CoV N protein = MERS-CoV N protein (MERS-CoV, UniProt K9N4V7 1-411); assay: ITC; settings: both partners purified
SARS-CoV N protein = SARS-CoV N protein (SARS-CoV, UniProt P59595 1-422); assay: ITC; settings: both partners purified
SARS-CoV N protein, sequence (P59595 whole entry): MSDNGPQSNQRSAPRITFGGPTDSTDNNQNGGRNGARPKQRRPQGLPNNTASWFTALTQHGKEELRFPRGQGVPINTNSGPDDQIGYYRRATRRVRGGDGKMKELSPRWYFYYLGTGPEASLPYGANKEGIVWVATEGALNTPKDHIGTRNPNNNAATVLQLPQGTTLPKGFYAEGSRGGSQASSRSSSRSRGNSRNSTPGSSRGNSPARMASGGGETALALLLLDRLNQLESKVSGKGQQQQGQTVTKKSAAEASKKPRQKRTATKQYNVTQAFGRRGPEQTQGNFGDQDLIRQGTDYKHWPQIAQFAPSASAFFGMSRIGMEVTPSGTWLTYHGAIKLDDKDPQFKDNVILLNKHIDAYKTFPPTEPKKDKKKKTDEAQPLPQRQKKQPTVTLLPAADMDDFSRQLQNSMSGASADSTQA

Row | Binder | Kd (MERS-CoV N protein) | dH (MERS-CoV N protein) | stoichiometry N (MERS-CoV N protein) | Kd (SARS-CoV N protein) | dH (SARS-CoV N protein) | stoichiometry N (SARS-CoV N protein)
1 | B1 | 2.3 ± 0.6 µM | 6.09 ± 0.311 kcal/mol | 0.82 ± 0.02 | – | – | –
2 | B2 | – | – | – | 0.8 ± 0.2 µM | -13.4 ± 0.382 kcal/mol | 1 ± 0.02
